For test [1], the target named is full-length San1 (lysine residues changed to arginines) (Saccharomyces cerevisiae) (UniProt P22470).
Test [2] deals with San1_(1–303) (lysine residues changed to arginines) (Saccharomyces cerevisiae) (UniProt P22470).
Test [3] shares this target. The source holds these as a separate data set.

Ends that are not written are not given here.

B1: San1 peptide, radiolabeled (peptide)
peptide: Ac-CGSRRGSYNASSGEQMLSRTGFFLVLIVGQPLHNPVK
modifications: also: 32P phosphate added by cAMP-dependent protein kinase, residue not given here
As for B1, the multi-turnover ubiquitylation: fraction of peptide substrate ubiquitylated, 5 to 15 min, substrate to San1 ratios 6:1 to 18:1 in test [1] amounted to 50%. Besides, in test [2], the multi-turnover ubiquitylation: fraction of peptide substrate ubiquitylated, same incubation period and 18:1 substrate to ligase ratio is 15%.

B2: San1 peptide, unlabeled (peptide)
peptide: Ac-CGSRRGSYNASSGEQMLSRTGFFLVLIVGQPLHNPVK
Turning to B2, in test [3], the limited proteolysis with chymotrypsin: stability of San1(1-303) with peptide substrate against without substrate stood at 30 fold and the limited proteolysis: fraction of radiolabeled San1(1-303) intact with chymotrypsin after 30 min, with excess peptide substrate is 50%.

The record behind these values is article PMC8615460.
